This assay concerns the target T1, PCNA (Pol30) immunoprecipitated in the co-IP of Figure 2C (S. cerevisiae, UniProt P15873 1-258).
T1 construct: Pol30 (PCNA), S. cerevisiae; homotrimeric clamp of three copies of Pol30; No tag is named for PCNA in this experiment; the methods precipitate with an anti-PCNA antibody; source: S. cerevisiae, in lysate
T1 sequence (looked up): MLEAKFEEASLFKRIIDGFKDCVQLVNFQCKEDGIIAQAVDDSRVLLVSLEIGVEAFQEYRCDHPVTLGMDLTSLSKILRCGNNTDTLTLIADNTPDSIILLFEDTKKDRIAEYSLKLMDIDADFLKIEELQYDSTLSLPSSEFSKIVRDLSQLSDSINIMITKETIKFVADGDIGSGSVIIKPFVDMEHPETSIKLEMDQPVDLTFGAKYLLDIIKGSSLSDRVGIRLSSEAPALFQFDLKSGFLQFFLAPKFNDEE
Description: co-IP; PCNA immunoprecipitated from yeast extract (methods: 2 μg anti-PCNA antibody, overnight at 4 °C, washes with lysis buffer at 220 mM NaCl); level of FLAG-tagged Pol3 or Pol3-01 co-IPed measured (Figure 2C). To be noted: partners not purified.

B1: FLAG-tagged Pol3-01 (Pol3-01-Flag) of the co-IP of Figure 2C (natural protein, S. cerevisiae, UniProt P15436 1-1097, looked up)
chain: MSEKRSLPMVDVKIDDEDTPQLEKKIKRQSIDHGVGSEPVSTIEIIPSDSFRKYNSQGFKAKDTDLMGTQLESTFEQELSQMEHDMADQEEHDLSSFERKKLPTDFDPSLYDISFQQIDAEQSVLNGIKDENTSTVVRFFGVTSEGHSVLCNVTGFKNYLYVPAPNSSDANDQEQINKFVHYLNETFDHAIDSIEVVSKQSIWGYSGDTKLPFWKIYVTYPHMVNKLRTAFERGHLSFNSWFSNGTTTYDNIAYTLRLMVDCGIVGMSWITLPKGKYSMIEPNNRVSSCQLEVSINYRNLIAHPAEGDWSHTAPLRIMSFAIACAGRIGVFPEPEYDPVIQIANVVSIAGAKKPFIRNVFTLNTCSPITGSMIFSHATEEEMLSNWRNFIIKVDPDVIIGYNTTNFDIPYLLNRAKALKVNDFPYFGRLKTVKQEIKESVFSSKAYGTRETKNVNIDGRLQLDLLQFIQREYKLRSYTLNAVSAHFLGEQKEDVHYSIISDLQNGDSETRRRLAVYCLKDAYLPLRLMEKLMALVNYTEMARVTGVPFSYLLARGQQIKVVSQLFRKCLEIDTVIPNMQSQASDDQYEGATVIEPIRGYYDVPIATLDFNSLYPSIMMAHNLCYTTLCNKATVERLNLKIDEDYVITPNGDYFVTTKRRRGILPIILDELISARKRAKKDLRDEKDPFKRDVLNGRQLALKISANSVYGFTGATVGKLPCLAISSSVTAYGRTMILKTKTAVQEKYCIKNGYKHDAVVVYGDTDSVMVKFGTTDLKEAMDLGTEAAKYVSTLFKHPINLEFEKAYFPYLLINKKRYAGLFWTNPDKFDKLDQKGLASVRRDSCSLVSIVMNKVLKKILIERNVDGALAFVRETINDILHNRVDISKLIISKTLAPNYTNPQPHAVLAERMKRREGVGPNVGDRVDYVIIGGNDKLYNRAEDPLFVLENNIQVDSRYYLTNQLQNPIISIVAPIIGDKQANGMFVVKSIKINTGSQKGGLMSFIKKVEACKSCKGPLRKGEGPLCSNCLARSGELYIKALYDVRDLEEKYSRLWTQCQRCAGNLHSEVLCSNKNCDIFYMRVKVKKELQEKVEQLSKW
notes: Pol3, catalytic subunit of DNA polymerase delta, S. cerevisiae, pol3-01 allele (D321A, E323A); the tags may be swapped in the text; source: S. cerevisiae, in lysate
With B1, the “fold reduction in co-IP against Pol3” value was determined as 4 fold.
